B1: Peroxisome proliferator-activated receptor delta, residues 71 to 145; numbered along this chain, Q03181 (parent)
chain: NMECRVCGDKASGFHYGVHACEGCKGFFRRTIRMKLEYEKCERSCKIQKKNRNKCQYCRFQKCLALGMSHNAIRF
B2: POU domain, class 2, transcription factor 2, residues 200 to 269; numbered along this chain, P09086 (parent)
chain: LEELEQFARTFKQRRIKLGFTQGDVGLAMGKLYGNDFSQTTISRFEALNLSFKNMCKLKPLLEKWLNDAE

Among the data in the Human Domainome abundance scans (Beltran et al. 2025) are abundance fitness values, retold here.

± gives the uncertainty stated by the source.

One data set covers variants of B1. Nature of the data set: abundance fitness (aPCA) (normalised: wild type 0, dead -1); higher = more abundant; growth selection in yeast, the domain comes from the species named. The conditions noted are these: Homo sapiens.
Regarding N53D, the abundance fitness is -0.08 ± 0.067.

As for R29T, the abundance fitness came out at 0.197 ± 0.044.

Turning to C4F, the abundance fitness was -0.675 ± 0.2.

For M34W, the abundance fitness is -0.063 ± 0.054.

M34G: the abundance fitness is -0.033 ± 0.039.

Consider L36G, for which the abundance fitness was -0.224 ± 0.038.

On to L36P, for which the abundance fitness was -0.374 ± 0.067.

In the case of H15C, the abundance fitness was -0.044 ± 0.066.

Turning to H15F, the abundance fitness is -0.006 ± 0.069.

Take C24K: the abundance fitness was -0.6 ± 0.14.

Take C58W: the abundance fitness is -0.723 ± 0.089.

In the case of G8A, the abundance fitness is -0.382 ± 0.052.

Regarding S44G, the abundance fitness was 0.055 ± 0.03.

On to R43T, for which the abundance fitness is -0.161 ± 0.062.

Turning to R43H, the abundance fitness is -0.07 ± 0.086.

H70Q: the abundance fitness turned out to be 0.108 ± 0.095.

As to Y38V, the abundance fitness was -0.74 ± 0.091.

Turning to Y38P, the abundance fitness is -0.758 ± 0.1.

As for K40L, the abundance fitness is -0.077 ± 0.037.

Turning to K40W, the abundance fitness is -0.348 ± 0.058.

For F28H, the abundance fitness was -0.936 ± 0.33.

As to F28P, the abundance fitness is -0.406 ± 0.077.

With K50R, the abundance fitness is -0.06 ± 0.035.

Regarding Q56G, the abundance fitness was 0.002 ± 0.031.

R33V: the abundance fitness came out at 0.072 ± 0.043.

For R33D, the abundance fitness turned out to be 0.177 ± 0.069.

For H19I, the abundance fitness was 0.009 ± 0.073.

For the variant S69V, the abundance fitness was -0.057 ± 0.043.

As to S69Q, the abundance fitness worked out at 0.088 ± 0.058.

As to A72G, the abundance fitness was 0.059 ± 0.03.

As for A72D, the abundance fitness came out at 0.132 ± 0.048.

In the case of E42R, the abundance fitness is -0.367 ± 0.038.

Turning to E42M, the abundance fitness was -0.051 ± 0.054.

In the case of E3W, the abundance fitness is -0.176 ± 0.054.

Turning to C21R, the abundance fitness was -0.865 ± 0.09.

Regarding K54M, the abundance fitness worked out at 0.052 ± 0.052.

Regarding R74Q, the abundance fitness came out at 0.284 ± 0.06.

Consider R74M, for which the abundance fitness was found to be 0.004 ± 0.081.

Regarding K62Q, the abundance fitness is -0.293 ± 0.077.

Regarding K62E, the abundance fitness is -0.447 ± 0.078.

For K62R, the abundance fitness was -0.193 ± 0.041.

Turning to N71H, the abundance fitness is -0.173 ± 0.074.

Take N71W: the abundance fitness is -0.362 ± 0.059.

Consider L66P, for which the abundance fitness is -0.681 ± 0.13.

Turning to L66Y, the abundance fitness was -0.345 ± 0.12.

On to L66G, for which the abundance fitness is -0.419 ± 0.051.

I47F: the abundance fitness was -0.246 ± 0.074.

With I47H, the abundance fitness is -0.589 ± 0.1.

In the case of M68E, the abundance fitness was -0.794 ± 0.12.

Take Y16S: the abundance fitness is -0.132 ± 0.041.

K25H: the abundance fitness was -0.19 ± 0.089.

Regarding F60T, the abundance fitness is -0.549 ± 0.1.

In the case of F60R, the abundance fitness was -0.798 ± 0.084.

Turning to F60I, the abundance fitness was -0.399 ± 0.13.

Take C55E: the abundance fitness is -1.03 ± 0.22.

With C55K, the abundance fitness is -0.646 ± 0.18.

Take C55P: the abundance fitness was -0.864 ± 0.34.

For the variant N51Q, the abundance fitness was -0.042 ± 0.063.

N51L: the abundance fitness was -0.133 ± 0.054.

As for N51M, the abundance fitness is -0.026 ± 0.072.

For G23H, the abundance fitness is 0.26 ± 0.088.

Consider C63R, for which the abundance fitness was -0.508 ± 0.054.

Consider C7L, for which the abundance fitness was -0.782 ± 0.089.

N1T: the abundance fitness was -0.012 ± 0.067.

Consider K35T, for which the abundance fitness is -0.272 ± 0.055.

Regarding G67F, the abundance fitness is -0.459 ± 0.14.

Regarding G67R, the abundance fitness is -0.584 ± 0.052.

In the case of G67Q, the abundance fitness is -0.604 ± 0.16.

Turning to F14K, the abundance fitness was found to be 0.006 ± 0.054.

As to A20S, the abundance fitness is -0.168 ± 0.05.

As for F27K, the abundance fitness was -0.772 ± 0.17.

Turning to R59V, the abundance fitness was -0.472 ± 0.058.

For G26C, the abundance fitness is -0.139 ± 0.058.

Turning to R52N, the abundance fitness was -0.084 ± 0.09.

As for L64H, the abundance fitness is -0.274 ± 0.1.

Variants of B2 are the subject of the next data set. Described as above. The following applies: Homo sapiens.
Regarding K64S, the abundance fitness was -0.084 ± 0.073.

K64C: the abundance fitness was -0.117 ± 0.095.

Regarding K64L, the abundance fitness was -0.049 ± 0.046.

Consider K64Q, for which the abundance fitness was 0.008 ± 0.052.

As for K64E, the abundance fitness was -0.016 ± 0.064.

On to K64R, for which the abundance fitness is -0.054 ± 0.037.

For the variant K64Y, the abundance fitness is -0.24 ± 0.073.

Consider K64W, for which the abundance fitness was -0.257 ± 0.072.

Take K64P: the abundance fitness was -0.343 ± 0.067.

Regarding K64H, the abundance fitness was 0.041 ± 0.11.

With K64V, the abundance fitness is -0.048 ± 0.054.

With K64I, the abundance fitness is -0.158 ± 0.14.

In the case of K64N, the abundance fitness is -0.232 ± 0.11.

As to K64D, the abundance fitness amounted to 0.003 ± 0.09.

As to K64M, the abundance fitness was -0.096 ± 0.069.

As to K64A, the abundance fitness turned out to be 0.081 ± 0.084.

For L62Y, the abundance fitness was -0.076 ± 0.17.

With D68P, the abundance fitness is -0.349 ± 0.03.

Consider D68C, for which the abundance fitness was -0.053 ± 0.066.

Take D68F: the abundance fitness was 0.085 ± 0.11.

With D68Y, the abundance fitness was -0.076 ± 0.074.

Regarding D68V, the abundance fitness was -0.054 ± 0.043.

Turning to D68R, the abundance fitness is -0.022 ± 0.029.

With D68K, the abundance fitness was -0.015 ± 0.044.

Take D68W: the abundance fitness was -0.147 ± 0.06.

As to D68H, the abundance fitness is -0.205 ± 0.14.

As to D68E, the abundance fitness was -0.047 ± 0.052.

In the case of D68Q, the abundance fitness was -0.063 ± 0.079.

On to D68I, for which the abundance fitness is -0.22 ± 0.088.

As to L66D, the abundance fitness was -0.358 ± 0.18.

On to L66Q, for which the abundance fitness is -0.358 ± 0.076.

Take L66Y: the abundance fitness is -0.047 ± 0.16.

As to L66C, the abundance fitness was found to be 0.025 ± 0.084.

Regarding L66F, the abundance fitness is -0.27 ± 0.11.

Take L66E: the abundance fitness is -0.409 ± 0.077.

For L66R, the abundance fitness was -0.837 ± 0.079.

With L66H, the abundance fitness was -0.526 ± 0.36.

Consider L66V, for which the abundance fitness is 0.007 ± 0.045.

Regarding L66S, the abundance fitness was -0.238 ± 0.043.

Turning to L66P, the abundance fitness is -0.719 ± 0.3.

With L66W, the abundance fitness was -0.232 ± 0.058.

For the variant L66M, the abundance fitness was -0.027 ± 0.057.

Regarding L66I, the abundance fitness stood at 0.03 ± 0.11.

Take L66A: the abundance fitness turned out to be 0.001 ± 0.056.

As for L66G, the abundance fitness was -0.38 ± 0.046.

As to L66T, the abundance fitness was -0.355 ± 0.081.

For the variant A69Y, the abundance fitness was -0.107 ± 0.093.

A69K: the abundance fitness is -0.105 ± 0.063.

Turning to A69R, the abundance fitness is -0.007 ± 0.049.

As to A69V, the abundance fitness was -0.084 ± 0.057.

Take A69T: the abundance fitness turned out to be 0.056 ± 0.069.

A69N: the abundance fitness turned out to be 0.128 ± 0.25.

Turning to A69F, the abundance fitness is -0.179 ± 0.085.

As to A69D, the abundance fitness is -0.233 ± 0.088.

Regarding A69E, the abundance fitness came to 0.009 ± 0.069.

Regarding A69S, the abundance fitness was -0.046 ± 0.051.

A69G: the abundance fitness is -0.126 ± 0.049.

In the case of A69L, the abundance fitness is -0.034 ± 0.062.

Consider A69I, for which the abundance fitness was 0.012 ± 0.11.

On to A69P, for which the abundance fitness is -0.15 ± 0.054.

E70W: the abundance fitness was -0.073 ± 0.065.

With E70T, the abundance fitness is -0.086 ± 0.089.

Take E70M: the abundance fitness was -0.072 ± 0.11.

Consider E70Y, for which the abundance fitness was -0.195 ± 0.11.

Turning to E70V, the abundance fitness is -0.035 ± 0.042.

Regarding E70N, the abundance fitness was -0.066 ± 0.16.

On to E70F, for which the abundance fitness is -0.2 ± 0.19.

As to E70K, the abundance fitness was -0.128 ± 0.085.

Take E70H: the abundance fitness is -0.341 ± 0.15.

Regarding E70C, the abundance fitness is -0.092 ± 0.12.

As for E70P, the abundance fitness is -0.253 ± 0.22.

As for E70A, the abundance fitness was -0.047 ± 0.07.

As for E70R, the abundance fitness was -0.164 ± 0.052.

For E70D, the abundance fitness was 0.054 ± 0.054.

As for E70G, the abundance fitness is -0.072 ± 0.069.

Take E70S: the abundance fitness amounted to 0.071 ± 0.084.

On to E70Q, for which the abundance fitness is -0.07 ± 0.072.

Regarding N67Y, the abundance fitness was -0.497 ± 0.38.

As to N67D, the abundance fitness was -0.221 ± 0.22.

As for W65G, the abundance fitness is -0.71 ± 0.088.

Turning to W65A, the abundance fitness was -0.469 ± 0.063.

With W65E, the abundance fitness is -0.923 ± 0.17.

For W65V, the abundance fitness was -0.198 ± 0.065.

W65C: the abundance fitness is -0.243 ± 0.06.

For the variant W65S, the abundance fitness was -0.522 ± 0.11.

W65T: the abundance fitness was -0.362 ± 0.061.

W65K: the abundance fitness was -0.716 ± 0.16.

W65M: the abundance fitness was -0.309 ± 0.12.

In the case of W65R, the abundance fitness is -0.628 ± 0.066.

For W65Q, the abundance fitness is -0.843 ± 0.18.

For the variant W65Y, the abundance fitness was -0.128 ± 0.093.

On to W65P, for which the abundance fitness was -0.433 ± 0.15.
